# Measured values: IntAct's records for PubMed 22885598
# B1: Autophagy-related protein 13 (Saccharomyces cerevisiae), Q06628 (parent)
# chain: MVAEEDIEKQVLQLIDSFFLKTTLLICSTESSRYQSSTENIFLFDDTWFEDHSELVSELPEIISKWSHYDGRKELPPLVVETYLDLRQLNSSHLVRLKDHEGHLWNVCKGTKKQEIVMERWLIELDNSSPTFKSYSEDETDVNELSKQLVLLFRYLLTLIQLLPTTELYQLLIKSYNGPQNEGSSNPITSTGPLVSIRTCVLDGSKPILSKGRIGLSKPIINTYSNALNESNLPAHLDQKKITPVWTKFGLLRVSVSYRRDWKFEINNTNDELFSARHASVSHNSQGPQNQPEQEGQSDQDIGKRQPQFQQQQQPQQQQQQQQQQQRQHQVQTQQQRQIPDRRSLSLSPCTRANSFEPQSWQKKVYPISRPVQPFKVGSIGSQSASRNPSNSSFFNQPPVHRPSMSSNYGPQMNIEGTSVGSTSKYSSSFGNIRRHSSVKTTENAEKVSKAVKSPLQPQESQEDLMDFVKLLEEKPDLTIKKTSGNNPPNINISDSLIRYQNLKPSNDLLSEDLSVSLSMDPNHTYHRGRSDSHSPLPSISPSMHYGSLNSRMSQGANASHLIARGGGNSSTSALNSRRNSLDKSSNKQGMSGLPPIFGGESTSYHHDNKIQKYNQLGVEEDDDDENDRLLNQMGNSATKFKSSISPRSIDSISSSFIKSRIPIRQPYHYSQPTTAPFQAQAKFHKPANKLIDNGNRSNSNNNNHNGNDAVGVMHNDEDDQDDDLVFFMSDMNLSKEG
# partner: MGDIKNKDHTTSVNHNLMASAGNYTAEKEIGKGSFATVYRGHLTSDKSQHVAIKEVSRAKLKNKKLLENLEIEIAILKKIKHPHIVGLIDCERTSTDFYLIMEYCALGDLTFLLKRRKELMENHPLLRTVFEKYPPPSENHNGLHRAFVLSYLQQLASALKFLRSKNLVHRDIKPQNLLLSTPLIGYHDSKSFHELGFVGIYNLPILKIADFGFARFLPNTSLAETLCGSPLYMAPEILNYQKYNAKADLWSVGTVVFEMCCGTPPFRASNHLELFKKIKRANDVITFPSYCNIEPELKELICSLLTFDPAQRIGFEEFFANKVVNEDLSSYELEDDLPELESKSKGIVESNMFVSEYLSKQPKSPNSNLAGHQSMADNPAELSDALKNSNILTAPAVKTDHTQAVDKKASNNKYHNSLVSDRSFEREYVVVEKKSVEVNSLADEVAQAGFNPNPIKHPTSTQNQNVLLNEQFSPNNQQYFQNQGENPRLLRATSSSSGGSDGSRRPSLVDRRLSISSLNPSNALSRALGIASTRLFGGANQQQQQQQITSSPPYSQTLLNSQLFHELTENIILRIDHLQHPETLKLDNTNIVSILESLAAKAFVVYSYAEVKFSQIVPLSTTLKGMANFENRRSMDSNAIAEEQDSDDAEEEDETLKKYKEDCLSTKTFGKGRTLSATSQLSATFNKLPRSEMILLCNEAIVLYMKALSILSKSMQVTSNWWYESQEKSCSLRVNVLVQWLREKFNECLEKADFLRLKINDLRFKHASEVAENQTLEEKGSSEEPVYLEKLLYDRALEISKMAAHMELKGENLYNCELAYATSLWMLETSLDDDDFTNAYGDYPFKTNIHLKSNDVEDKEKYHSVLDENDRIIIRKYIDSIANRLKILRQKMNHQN
# Variants of: B1
# Conditions: with atg1_yeast ATG1, P53104
row,Variant,effect of a mutation on the interaction
1,V469A,disrupting interaction
2,F468A,disrupting interaction

# Variants of: B1
# Conditions: with atg1_yeast ATG1, P53104
# Remark: another data set of the same source
row,Variant,effect of a mutation on the interaction
1,F468A,decreasing interaction
